T1: Cyno PD-1
T1 chain: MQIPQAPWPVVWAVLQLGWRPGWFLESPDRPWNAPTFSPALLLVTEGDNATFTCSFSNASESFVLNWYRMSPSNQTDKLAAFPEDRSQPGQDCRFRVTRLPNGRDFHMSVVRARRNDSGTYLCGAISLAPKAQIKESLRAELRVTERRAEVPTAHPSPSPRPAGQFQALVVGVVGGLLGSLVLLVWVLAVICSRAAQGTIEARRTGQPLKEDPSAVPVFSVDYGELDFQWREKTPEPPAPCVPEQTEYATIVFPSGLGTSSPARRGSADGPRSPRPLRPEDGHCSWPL


Experiments:
human PD-1-His = human PD-1-His (human, UniProt Q15116 25-167); test: Octet
Cyno PD-1 = target: T1, Cyno PD-1; test: Octet

human PD-1-His, sequence (Q15116 25-167): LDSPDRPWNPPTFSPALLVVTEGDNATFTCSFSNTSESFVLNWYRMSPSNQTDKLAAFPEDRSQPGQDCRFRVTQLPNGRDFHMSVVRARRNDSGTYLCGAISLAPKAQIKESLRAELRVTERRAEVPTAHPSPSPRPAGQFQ

Row | Kd (human PD-1-His) | Kd (Cyno PD-1) | Binder
1 | 24 nM | 35.8 nM | XENP28536 (bivalent mAb based on humanized mAb C, mAb C[PD-1]_H1L1) (antibody, V domains shown) VH: EVQLVESGGGLVQPGGSLRLSCAASGFTFSSFGMHWVRQAPGKGLEWVSYISSGSSIIYYADSVKGRFTISRDNAKNSLYLQMNSLRAEDTAVYYCARGGRLVWSPDYWGQGTLVTVSS VL: DIVMTQSPDSLAVSLGERATINCKSSQSLLNSGNQKNYLTWYQQKPGQPPKLLIYWASTRESGVPDRFTGSGSGTDFTLTISSLQAEDVAVYYCQNDYSYPFTFGSGTKLEIK
2 | – | 42 nM | XENP28537 (humanized variant of anti-PD-1 mAb C, bivalent human IgG1) (antibody, V domains shown) VH: EVQLVESGGGLVQPGGSLRLSCAASGFTFSSFGMHWVRQAPGKGLEWVSYISSGSSIIYYADSVKGRFTISRDNAKNSLYLQMNSLRAEDTAVYYCARGGRLVWSPDYWGQGTLVTVSS VL: DIVMTQSPLSLPVTPGEPASISCRSSQSLLNSGNQKNYLTWYLQKPGQPPQLLIYWASTRESGVPDRFTGSGSGTDFTLKISRVEAEDVGVYYCQNDYSYPFTFGSGTKLEIKR
3 | 11.9 nM | – | XENP28519 (bivalent mAb based on humanized mAb A) (antibody, V domains shown) VH: QVQLQESGPGLVKPSQTLSLTCTVSGHSITSDYAWNWIRQPPGKKLEWIGYISYSGYTTYNPSLKSRVTISRDTSKNQFSLKLSSVTAADTAVYFCARDLDYGPWFAYWGQGTLVTVSS VL: DIQMTQSPSSLSASVGDRVTITCRASENIHNYLAWYQQKPGKSPKLLVYNVKTLADGVPSRFSGSGSGTDYTLTISSLQPEDFATYYCQHFWSSPWTFGGGTKVEIKR

From patent US20200140512A1 (published 2020)
